In article PMC6022668, “Biallelic UFM1 and UFC1 mutations expand the essential role of ufmylation in brain development” (Brain, 2018):
Numbering of substitutions follows the chain as printed. Numbers in names are those of the source. One block for each binder: values may come before it.

Molecular target: T1, GST-UBA5 (UniProt Q9GZZ9 1-404)
T1 construct: also called E1-like enzyme for ufmylation; source: recombinant, E. coli, purified on Glutathione Sepharose 4B (GST kept)
Assay: pull-down; GST-UBA5 bound to Glutathione Sepharose 4B, incubated 20 min at 4°C with purified proteins in 20 mM Tris-Cl pH 7.5, 150 mM NaCl, 1 mM EDTA, 1 mM DTT, 0.05% Nonidet P-40; NuPAGE and Coomassie staining
Conditions: both partners purified

T1 sequence (Q9GZZ9 whole entry): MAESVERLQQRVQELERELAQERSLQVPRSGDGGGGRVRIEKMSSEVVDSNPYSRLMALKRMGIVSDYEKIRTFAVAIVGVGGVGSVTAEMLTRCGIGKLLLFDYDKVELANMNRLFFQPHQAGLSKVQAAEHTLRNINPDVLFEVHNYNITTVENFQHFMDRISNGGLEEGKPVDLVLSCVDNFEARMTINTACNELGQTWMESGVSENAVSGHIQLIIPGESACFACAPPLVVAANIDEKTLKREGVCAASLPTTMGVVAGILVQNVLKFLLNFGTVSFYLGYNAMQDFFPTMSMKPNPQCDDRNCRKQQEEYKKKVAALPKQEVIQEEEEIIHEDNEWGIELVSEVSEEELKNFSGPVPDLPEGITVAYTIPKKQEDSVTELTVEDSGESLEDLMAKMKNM

binding result: binds
B1: UFC1 (wild type, recombinant) (enzyme, human, UniProt Q9Y3C8 1-167, looked up)
chain: MADEATRRVVSEIPVLKTNAGPRDRELWVQRLKEEYQSLIRYVENNKNADNDWFRLESNKEGTRWFGKCWYIHDLLKYEFDIEFDIPITYPTTAPEIAVPELDGKTAKMYRGGKICLTDHFKPLWARNVPKFGLAHLMALGLGPWLAVEIPDLIQKGVIQHKEKCNQ
notes: UFC1, human, the E2-like conjugating enzyme of UFM1; also called E2-like enzyme for ufmylation; source: recombinant, E. coli, purified on Glutathione Sepharose 4B, GST removed by PreScission protease

binding result: binds
B2: UFC1 T106I (recombinant) (enzyme, human, UniProt Q9Y3C8 1-167, looked up)
chain: B1 chain with T106I
notes: UFC1, human, with the patients' homozygous variant c.317C>T p.(Thr106Ile); A variant found in patients; also called p.(Thr106Ile); source: recombinant, E. coli, purified on Glutathione Sepharose 4B, GST removed by PreScission protease
